Experimental data: the DeepSol protein solubility set

Assay: soluble on expression in E. coli; label from the status in PepcDB or PDB records

Row | Sequence | soluble on expression in E. coli
1 | MEERNEQVVEEVKEAQVEEAVTPENSEETVEEKSEAALLQEKVDELQAKLTETEGRTLRLQADFENYKRRVQMDKQAAEKYRAQSLVSDILPALDNFERAMQVEATDEQTKSLLQGMEMVHRQLLEALNKEGVEVIEAVGKQFDPNEHQAIMQVEDSEFESNAVVEEFQKGYKLKDRVIRPSMVKVNQ | not soluble
2 | MKVTDVRLRKIQTDGRMKALVSITLDEAFVIHDLRVIEGNSGLFVAMPSKRTPDGEFRDIAHPINSDMRQEIQDAVMKVYDETDEVIPDKNATSDNEESDEA | soluble
3 | QVIEVLNKQVADWSVLFTKLHNFHWYVKGPQFFTLHEKFEELYTESATHIDEIAERILAIGGKPVATMKEYLEISSIQEAAYGETAEGMVEAIMKDYEMMLVELKKGMEIAQNSDDEMTSDLLLGIYTELEKHAWMLRAFLN | soluble
4 | MGSDKIHHHHHHMSKWQSKEQLIQLLSSLVEIPSITGTEAEVILPDFVVEQLSDLQYFKENPHHLQKNPTGDGRYFVTALVKKSDRTKNTVILVSHFDVVDVQDYGVWKEDAFNPKKLTSMFYAHKDELPDHVREDIEQGEWLFGRGTMDMKCGLALQMAMIEQACEGRFDGNVLLLAVPDEEVNSVGMRAAIPRLLELAREHDLEYKTVLNSEPMFARHPGDQKKYIYTGSIGKVLPGFLCYGKETHVGEPFAGLNGSYMASLITAELELNTDLCDIVEGEASPPPTNLLQRDLKEDYSVQIPHRAVTLFNLFLLEKSMTDVVSLLRQKVTKVAEKIEEKYEKQAYRFSKYNPFIPPNMKVNVLTYEELIAYAIEQHGQEKINEIQSSIIKNREEKDDRAVTIDLVDKLAILCKEKAPMIVLFFAPPYYPAVSSRNNLLIKEVVTEMEKYANLNHNITFENQNYFGGISDLSYVGLQNPLDSMSSLVDNMPLWDKGYSIPLQELEEFDVPVLNMGPVGKDAHQWTERLDVNYAFETLLDMLPICIEKLLVSNKITQV | not soluble
5 | MAGDPMIPVKNDPIDTRLAEMHEELRDLRNFPDSEFVGIIRELGFKCELCARCCTREFNDHVFLLDSDLERVRSIDPDAVTPAPYYEFCDQNGRFYVSGYALKTKPDGSCIFLENKRCRIYESRPSICRVYPHMLHREADETGKVDWRQISGLNEHGSYHSDLDDPACKEIALETRAYEEAYLQQVIGFFEAVKAHFRTNGLKHIQRTYDRKMREFLKGECDLEIFVYCKGGFEKQKLAKESERLEHHHHHH | soluble
6 | MNQAWQSQLPLSHIKNIVPVSGGDVNDAFRIETDQEDYFLLVQRKRKSTFFDAEIAGLNLFEKVGITAPRVIDSGEIEDDAYLLLTYLDEGVSGSQEALGQLVARMHSEQQADNQFGFDLPYEGGDISFDNSWTNSWITLFVEKRLDKLKDRLVQQGLWGDADVTQYQAVRRVIVNELESHNSKPSLLHGDLWGGNYMFLTDGSPALFDPAPLYGDREFDIGITSVFGGFTQAFYDAYHKHYPLSEGADVRLEFYRLYLLMVHLVKFGEMYAGSVDRSMQKILNQLEHHHHHH | soluble
7 | MSSTRTASGRTSGRNGTWRNWGGNVSARPAREVTPASVDELADAVRRAAEDGQRVKAVGTGHSFTSIAATDGVLIRPQLLTGIRSIDRDAMTVTVEAGTPLKRLNMALAREGLSLTNMGDIMEQTVSGATSTGTHGTGRDSASIAAQIRGLELVTADGSVLTCSADENPEVFAAARIGLGALGVVTAITFAVEPVFLLTAREEPMPFDRVLADFDALWSENEHFEFYWFPHTNSTNTKRNNRSAGPERPVGRFQGWLDDEFLSNGLFQAVNWVGRAAPATIPSIARISSRALSARTYTDTPYKVFTSPRRVRFVEMEYAVPREAVVEVLRELRTMVDRSRLRISFPVEVRTAPADDITLSTASARDSAYIAVHMFRGTPYQAYFTAAERIFTAHEGRPHWGKVHTRDAGYFSRVYPRFGEFTALRDRLDPDRLFQNDYLRRVLGPLEHHHHHH | soluble
8 | MISNKRRPKIKIWNKEQMALYLKAIKKDRLYAAFVTDSKSGLRKSELLALRWSDIDFSTGLTKIERGWVRSPKGTLYLSDLKSENSERTLVFSTDLLKVLLEHKSRQDEEKKTAGKNYIDNGLVFCREDGSYINPSTFTRRHYDLTAKAKLPRISVHALRHSISTALLESGKVDLKQIQEMLGHKDISTTGNYYTDVLERMKQKTSELIDNLIQTELEHHHHHH | not soluble
9 | LQYQPNKLARALTSSGFDAIMVISTRSTKTTAGNPFFSEVLHAITAKAEEEGFDVILQTSHNPAEDLQKCESKIKQKMIKGIIMLSSPADESFFAQLDKYDIPVVVIGKVEGQYAHVYSVDTDNFGDSIALTDALIESGHQNIACLHAPLDVHVSVDRVNGYKQSLAAHNIAVRDEWIVDGGYTHETALKAARQLLSQSPLPEAVFATDSLKLMSIYRAAAEKNIAIPQQLAVVGYSNETLSFILTPAPGGIDVPTQELGQQSCELLFRLISGKPSPQNITVATHMTLK | soluble
10 | MGAVSAFSWASSGRLHALEVFVMKIPKTYDEIMEHFGGLIDEVTAELLESYAKGETVRVSEALAKSGRVAVEGVVLRVFPVRHFSKNGRSGKVGSVVIQDDCTVRVNFWNEAAEIIEAGDIVEGARIKVRGYARGEEIHVNSLSEVEVFVDFVNISELDEKVGERVNVKGFVSGLGEPEKANEIYISDETGRVKVLLENESLYYAVDIGSYVEIYNALAGEDGIYVDRNSRFSVGELEHHHHHH | not soluble
11 | GKPFSYGASFNLTFARNRYLRYPDSPNTVEWRKRTGRSVDASVVWVAEGLFRSEEEIDNSAWYGTRPNVGDIKYKDLNGDGKIDEDDRTRVGRGNRPELTYGLNLNCAWNGFDLSAQFTGGALFDVSLTGTYYNGYDDNTVWTQAFKEGANSPLYLVQNAYTTENPNGTFPRLTLGNQGHGGDNGLASTFWLRNGRYLRLKSAQLGYTFPKKWMSPVGIQNLRIYVEGSNLFTISGLPDGIDPESPGVNNGYYPQQRTIMGGITLTF | not soluble
12 | MTNPGDGAAGAADRATLDHWRPRLAAIAAAAGQDDAAHDLGHLRRVWDAARAMLQAHPEADALVVLAASYLHDLVNLPKNHPERHLASRQAAAAARERLARAGFPAARLDAVAHAIEAHSFSAGIAPRTIEARIVQDADRLDALGPVGLVRMFHVGGSLGRALAHPSDPLAAQRALDDSRYTLDHIEAKLARLPHGMQTEAGRRLGEQRLAWLRDFRAAFSAQWGGGQLRLEHHHHHH | not soluble
13 | MTAGGERVTERGTGSDPVDLFIIGGGINGCGIARDAAGRGLSVTLAEMGDLAQATSSASTKLFHGGLRYLEYFEFRLVREALEERETLLVAMPHISWPMRFVLPWQPEMRFAGDTPTARLLGRLMPWARGRRPAWLIRLALETYDRLGGRKILPPARSVDLTRDPAGRALQPRFTKGWEYSDCWVEDSRLVVLNARDAEIRGATILTRTKVVGAERRGDLWHVTTEGARGRQVHRARALVNAGGPWVARIIRETLALPTTEGVRLVRGSHIVTKRLFDHDRCYFFQGTDGRIIFAIPYETDFTLIGTTDQDHRGAPDEARCTPEEQDYLCTFASDYFRKPVTREDIVWTYSGVRPLHDDGARSATAATRDYVLSLDSRGAPLLNVFGGKITTYRRLAESAMAKLAGHFPQARGAWTARVPLPGGDFPWDGAPALAEGLRRDYPFLTERWAMRLVRAYGTDARNLLGPARSALDLGRDFGATLTEAEVRWLMDREYAERAEDVVWRRSKLGLRLTPEEIAALDGWMKDAGGAMEARADTGLEHHHHHH | soluble
14 | MRPMGHAESVMSRFAHRVKSRRSWKDQGLRAFLKAMVARIDGIRWRKGPLEAEEPQSAVSASTKSKRIEQAKRKAGRLWADVVRQNLPCLQQSSGTPIHQALSALRDGGWV | not soluble
15 | MGSDKIHHHHHHMLDDIKKTLWAAADKLRANVDAAEYKHLVLGLIFLKFVSDTFAARRAELERRFVDVNDDYFLHDADADFIAEELEERDYYIEVNVFWVPEPARWEGLRANAKQANIGKQIDDALDAIEKENPSLKGILDKRYARAPLPDGKLGELVDLISTIGFGEDQSKARDILGQVYEYFLGQFASAEGKKGGQFYTPQSIVNTLVAVLDPHQGKVYDPCCGSGGMFVQSEKFIEAHGGKLGDVSIYGQESNPTTWRLAAMNLAIRGIDFNLGREPGDTFTKNQHSDLRADYILANPPFNISDWWHGSLEGDPRWVYGNPPQGNANYAWLQHMLYHLKPTGRAGIVLANGSMSSSQNTEGDIRRAMVDADVVEVMVALPGQLFFNTQIPACLWFLTKQKTARKGEVLFIDARKLGKMISRVQSELDQAAIDRIANTAKAWRGEDMTGVEGFEDGYQDIPGFCRSVPLSEIAEHGHVLTPGRYVGAEEVEDCDDAFADKMTMLTEKLAEQMAKGAELDQLIRQKLGGLGYEF | not soluble
16 | MNFDVAIIGGGLAGLTCAIALQQRGKRCVIINNGQAAIDFASGSLDLLSRMPSTTYGENRAVENLKENITALRNELPAHPYSLLGAEKVLAKAQDFERLANELHLDLIGSTEKNHWRVTGLGSLRGAWLSPNSVPTVQGNEPFPHKRIAVLGIEGYHDFQPQLLAANLVLNPQFEHCEVTSGFLNIPQLDELRKNAREFRSVNISQLLEHKLAFKDLVKEIIESAQGAEAVFLPACFGLENQEFMTALRDATKLALFELPTLPPSLLGMRQRIQLRHKFESLGGLMINGDSALNATFEGNQVRCINTRLLEDEEITADNFVLASGSFFSKGLISEFDKIYEPVFESDIIGVEGFNNKDRFTWTAHRFAHPQPYQSAGVAINAQCQVKKCGQFLTNLYAVGNVIGGFNALELGCGSGVAVVTALAVADEILAKLEHHHHHH | soluble
17 | MHHHHHHLEVLFQGPSSTVTIEYFNQKKEMTKTLEEITRDFEKENPKIKVKVVNVPNAGEVLKTRVLAGDVPDVVNIYPQSIELQEWAKAGVFEDLSNKDYLKRVKNGYAEKYAVNEKVYNVPFTANAYGIYYNKDKFEELGLKVPETWDEFEQLVKDIVAKGQTPFGIAGADAWTLNGYNQLAFATATGGGKEANQYLRYSQPNAIKLSDPIMKDDIKVMDILRINGSKQKNWEGAGYTDVIGAFARGDVLMTPNGSWAITAINEQKPNFKIGTFMIPGKEKGQSLTVGAGDLAWSISATTKHPKEANAFVEYMTRPEVMQKYYDVDGSPTAIEGVKQAGEDSPLAGMTEYAFTDRHLVWLQQYWTSEADFHTLTMNYVLTGDKQGMVNDLNAFFNPMKM | soluble
18 | SNAMKPENKIPVLTRLSDEMTAVVNFQQPGLPPWPADGDIETQRQYYLLERRFWNADAPSMTTRTCAVPTPYGDVTTRLYSPQPTSQATLYYLHGGGFILGNLDTHDRIMRLLARYTGCTVIGIDYSLSPQARYPQAIEETVAVCSYFSQHADEYSLNVEKIGFAGDSAGAMLALASALWLRDKHIRCGNVIAILLWYGLYGLQDSVSRRLFGGAWDGLTREDLDMYEKAYLRNDEDRESPWYCLFNNDLTRDVPPCFIASAEFDPLIDDSRLLHQTLQAHQQPCEYKMYPGTLHAFLHYSRMMTIADDALQDGARFFMARMKTPR | soluble
19 | MNTAAGRKEDIRIPPRVAPDLNAPRVLVLNASYEPLQVTSIKRAITLLQYGVAEVLEQSRDVVRSPSTVMSVPSVIRLRRYVRRPRVGAVPFNRRNVLRRDHFTCQYCGSQDDLTMDHVHPRSRGGKHGWDNVVTACRTCNQRKGNLTPEEAGMPLHVPPHAPTFGVYAHGQFAHWQPEWSGYIRGLEHHHHHH | not soluble
20 | MKLDFSSGAKPLWSQMANIIKKRIEDGEYEIGCTLPSEMSFADEFNVSRITVRQALNRLMTDGYILRQRGKGTIVKRDKTSFSTRMQSSFKQLQDEYDKTTKTLISVNNVKASEDVAEVFDINPGDNVIMLERSVESKGKIITIYHNYISPKVGASLKDDFTGSFYKYLEMKGFYITSAKEVISAKISTAKDKEVFGFSNDRAMLLKTKYGYSDGVPVEITYGTYIADDYNIVIELV | not soluble
21 | MSLEAAPAGSGPLRRTFLVPEIKSLDQYDFSRAKAAASLAWVLRAAFGGAEHVPPELWEPFYTDQYAQEHVKPPVTRLLLSAELYCRAWRQALPQLEPSPSPSALLALLARRGTVPSLPEHPVREADLKHQPILMGAHLAVIDALMVAFSFEWTKTLPGPLALSSLEHKLLFWVDTTVRRLQEKTEQEAAQRASPAAPLDGASEGHHHHHH | not soluble
